According to publication PMC9728385:

Assays:
[1] = target: TtCST Ctc1 R395E/Y445A/F473A (Tetrahymena, UniProt A0PGB2;Q6JXI5;D2CVN7;D2CVN8 1-622;1-373;1-164;1-422, R395E;Y445A;F473A); test: EMSA
TtCST Ctc1 F264A/Y268A = TtCST Ctc1 F264A/Y268A (Tetrahymena, UniProt A0PGB2;Q6JXI5;D2CVN7;D2CVN8 1-622;1-373;1-164;1-422, F264A;Y268A); test: EMSA
Sequence of TtCST Ctc1 F264A/Y268A (A0PGB2 whole entry F264A/Y268A, chain 1 of 4): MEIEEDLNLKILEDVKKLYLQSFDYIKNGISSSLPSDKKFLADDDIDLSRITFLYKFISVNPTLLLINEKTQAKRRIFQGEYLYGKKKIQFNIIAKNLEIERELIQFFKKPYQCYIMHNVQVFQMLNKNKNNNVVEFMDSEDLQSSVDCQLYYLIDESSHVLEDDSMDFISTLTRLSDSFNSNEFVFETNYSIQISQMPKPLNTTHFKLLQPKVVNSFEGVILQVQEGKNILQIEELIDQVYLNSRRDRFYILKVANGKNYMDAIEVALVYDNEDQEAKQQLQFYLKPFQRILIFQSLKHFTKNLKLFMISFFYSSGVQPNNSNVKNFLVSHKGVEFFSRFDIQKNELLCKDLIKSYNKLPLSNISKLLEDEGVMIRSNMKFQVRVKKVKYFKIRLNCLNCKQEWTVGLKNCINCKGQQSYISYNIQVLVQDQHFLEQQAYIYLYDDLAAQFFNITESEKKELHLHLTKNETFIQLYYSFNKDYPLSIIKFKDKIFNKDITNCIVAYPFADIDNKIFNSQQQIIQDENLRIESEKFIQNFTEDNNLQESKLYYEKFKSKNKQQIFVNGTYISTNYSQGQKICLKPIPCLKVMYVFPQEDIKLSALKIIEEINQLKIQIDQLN
Sequence of TtCST Ctc1 F264A/Y268A (Q6JXI5 whole entry, chain 2 of 4): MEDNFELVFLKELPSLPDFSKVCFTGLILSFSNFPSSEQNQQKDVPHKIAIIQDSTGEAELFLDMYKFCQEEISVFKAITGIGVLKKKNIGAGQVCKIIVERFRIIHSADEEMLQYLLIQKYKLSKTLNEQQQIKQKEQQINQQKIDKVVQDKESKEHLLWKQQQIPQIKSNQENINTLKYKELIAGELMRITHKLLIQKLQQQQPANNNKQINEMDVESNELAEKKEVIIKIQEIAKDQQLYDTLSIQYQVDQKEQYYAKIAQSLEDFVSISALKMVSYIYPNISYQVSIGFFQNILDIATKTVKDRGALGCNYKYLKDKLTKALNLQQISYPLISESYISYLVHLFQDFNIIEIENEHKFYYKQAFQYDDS
Sequence of TtCST Ctc1 F264A/Y268A (D2CVN7 whole entry, chain 3 of 4): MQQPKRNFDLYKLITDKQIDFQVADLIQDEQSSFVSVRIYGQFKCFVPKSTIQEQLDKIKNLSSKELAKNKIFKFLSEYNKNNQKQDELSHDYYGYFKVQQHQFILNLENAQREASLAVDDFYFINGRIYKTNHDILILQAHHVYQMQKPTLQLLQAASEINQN
Sequence of TtCST Ctc1 F264A/Y268A (D2CVN8 whole entry, chain 4 of 4): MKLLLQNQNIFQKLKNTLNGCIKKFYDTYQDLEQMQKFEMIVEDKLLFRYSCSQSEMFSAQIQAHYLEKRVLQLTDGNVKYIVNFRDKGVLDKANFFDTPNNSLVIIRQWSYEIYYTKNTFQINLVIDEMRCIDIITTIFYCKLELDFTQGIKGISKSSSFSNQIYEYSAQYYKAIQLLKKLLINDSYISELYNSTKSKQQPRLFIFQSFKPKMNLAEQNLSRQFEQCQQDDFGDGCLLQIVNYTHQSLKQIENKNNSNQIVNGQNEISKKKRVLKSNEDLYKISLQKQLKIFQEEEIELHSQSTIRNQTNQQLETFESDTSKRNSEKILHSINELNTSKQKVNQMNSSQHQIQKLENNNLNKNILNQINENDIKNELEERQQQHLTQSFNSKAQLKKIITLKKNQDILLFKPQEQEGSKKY

Sequence of TtCST Ctc1 R395E/Y445A/F473A (A0PGB2 whole entry R395E/Y445A/F473A, chain 1 of 4): as the sequence (A0PGB2 whole entry F264A/Y268A, chain 1 of 4) above, with A264F, A268Y, R395E, Y445A, F473A counted along it
Sequence of TtCST Ctc1 R395E/Y445A/F473A (Q6JXI5 whole entry, chain 2 of 4): as the sequence (Q6JXI5 whole entry, chain 2 of 4) above
Sequence of TtCST Ctc1 R395E/Y445A/F473A (D2CVN7 whole entry, chain 3 of 4): as the sequence (D2CVN7 whole entry, chain 3 of 4) above
Sequence of TtCST Ctc1 R395E/Y445A/F473A (D2CVN8 whole entry, chain 4 of 4): as the sequence (D2CVN8 whole entry, chain 4 of 4) above

B1: d(GTTGGG)5 (ssDNA)
DNA: GTTGGGGTTGGGGTTGGGGTTGGGGTTGGG
- Kd [1]: 520 nM
- binding signal (TtCST Ctc1 F264A/Y268A): 1.2 fold weaker Kd than WT
